The record followed here is paper PMC9394431 (Cell, 2022).

This assay addresses T1, α1β2γ2 GABAA receptor (Homo sapiens).
T1 chain 1: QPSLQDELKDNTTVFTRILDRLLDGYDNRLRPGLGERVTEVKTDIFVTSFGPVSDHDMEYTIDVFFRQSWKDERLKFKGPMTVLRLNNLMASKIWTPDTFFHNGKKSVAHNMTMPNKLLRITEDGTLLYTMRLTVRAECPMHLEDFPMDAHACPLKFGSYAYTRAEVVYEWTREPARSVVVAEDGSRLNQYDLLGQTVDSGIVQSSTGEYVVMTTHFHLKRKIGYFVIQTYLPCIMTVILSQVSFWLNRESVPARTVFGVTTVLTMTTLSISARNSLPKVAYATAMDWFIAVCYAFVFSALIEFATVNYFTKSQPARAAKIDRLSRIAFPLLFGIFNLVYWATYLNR
T1 chain 2: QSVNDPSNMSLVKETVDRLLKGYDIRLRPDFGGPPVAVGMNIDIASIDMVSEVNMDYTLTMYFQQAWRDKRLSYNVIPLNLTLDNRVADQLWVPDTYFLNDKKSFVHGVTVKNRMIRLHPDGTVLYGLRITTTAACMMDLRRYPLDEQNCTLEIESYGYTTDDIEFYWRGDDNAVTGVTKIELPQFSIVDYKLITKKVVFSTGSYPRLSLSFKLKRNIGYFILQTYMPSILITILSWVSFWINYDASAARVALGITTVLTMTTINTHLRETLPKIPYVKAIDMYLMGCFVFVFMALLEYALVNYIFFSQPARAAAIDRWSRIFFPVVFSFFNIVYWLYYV
T1 chain 3: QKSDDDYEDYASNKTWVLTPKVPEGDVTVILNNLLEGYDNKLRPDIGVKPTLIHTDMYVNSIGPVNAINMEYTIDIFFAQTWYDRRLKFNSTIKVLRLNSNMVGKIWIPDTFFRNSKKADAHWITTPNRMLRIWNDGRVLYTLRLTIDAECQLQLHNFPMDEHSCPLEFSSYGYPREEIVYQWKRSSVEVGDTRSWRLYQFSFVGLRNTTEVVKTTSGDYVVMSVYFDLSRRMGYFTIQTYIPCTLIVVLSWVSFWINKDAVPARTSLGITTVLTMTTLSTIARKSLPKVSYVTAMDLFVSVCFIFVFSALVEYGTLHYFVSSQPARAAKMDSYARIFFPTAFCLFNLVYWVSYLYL
The assay can be described thus: SEC.

B1: Fab175 (Fab, V domains shown)
VH: EVQLLESGEGLVQPGGSLRLSCAASGFTFKTYAMSWVRQAPGKGLEWVSAISGSGASTYYADFVEGRFTISRDNSKNTLYLQMNSLRAEDTAVYYCAKEPPAMVWFGGGYFDYWGQGTLVTVSS
VL: EIVLTQSPATLSLSPGERATLSCRASQSVSSYLAWYQQKPGQAPRLLIYDASNRATGIPARFSGSGSGTDFTLTISSLEPEDFAVYYCQQRSNWPPYSFGQGTKLEIK
B1: the “stoichiometry N” value came to 1 Fab per receptor.

By stoichiometry N is commonly meant a count of units in the complex or per binding partner.
